Results from US20210054043A1 (HADASIT MEDICAL RESEARCH SERVICES AND DEVELOPMENT, published 2021).

T1: isolated ectodomain of SLAMF1 containing a 6-histidine tag (seSLAMF1) (UniProt Q13291 21-237, limits assumed)
T1 construct: extracellular domain; not shown: 6-histidine tag
T1 sequence (looked up): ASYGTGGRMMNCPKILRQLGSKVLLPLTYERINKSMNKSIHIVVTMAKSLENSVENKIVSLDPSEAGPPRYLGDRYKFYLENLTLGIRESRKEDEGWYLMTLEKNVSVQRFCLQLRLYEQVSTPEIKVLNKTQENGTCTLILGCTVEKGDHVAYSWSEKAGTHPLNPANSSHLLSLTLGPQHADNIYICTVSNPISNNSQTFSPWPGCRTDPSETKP

B1: Fc-fused ectodomain of SLAMF6^var1 (seSLAMF6_Fc, Creative Biomart) (Fc fusion)
chain: QSSLTPLMVNGILGESVTLPLEFPAGEKVNFITWLFNETSLAFIVPHETKSPEIHVTNPKQGKRLNFTQSYSLQLSNLKMEDTGSYRAQISTKTSAKLSSYTLRILRQLRNIQVTNHSQLFQNMTCELHLTCSVEDADDNVSFRWEALGNTLSSQPNLTVSWDPRISSEQDYTCIAENAVSNLSFSVSAQKLCEDVKIQYTDTKM
notes: Bought reagent, coated on the plate at 1 ug/ml; Only the ectodomain stood in the assay; also called full length seSLAMF6-Fc; SLAMF6^var1 ectodomain (Fc-conjugated); not shown: Fc portion

What was measured:
Assay in all cases: ELISA, seSLAMF6-Fc coated on the plate, anti-His-HRP detection
[1] = molecular target: B1
Experimental: (§1) FIG. 11. seSLAMF6-V3 binding to full length seSLAMF6-Fc using ELISA. seSLAMF6-Fc was pre-coated to MaxiSorb plate. Soluble ectodomains from various SLAM family members (seSLAMF6, seSLAMF6-V3, seSLAMF1, seSLAMF7 and seSLAMF8, all containing 6-Histidine tags) were then added. An anti- Histidine antibody was used for detection.
(§2) MaxiSorb plates were pre-coated overnight with an Fc-fused ectodomain of SLAMF6^var1 (seSLAMF6_Fc, Creative Biomart, at 1 μg/ml and 4° C.). On the next day, the plate was washed and blocked using blocking buffer containing 1% BSA in PBSX1. Next, the plate was incubated for two hours with different concentrations of isolated ectodomains (containing 6-histidine tags) from SLAMF6^var1 (Prospec, seSLAMF6) or SLAMF6^var3 (Novoprotein/Bonopus, seSLAMF6-V3), or from SLAMF1, SLAMF7 or SLAMF8 (seSLAMF1, seSLAMF7 and seSLAMF8, respectively). The amount of receptor-bound ectodomain polypeptides was detected using horseradish peroxidase (HRP)-conjugated antibodies directed to the histidine tag (anti-HIS Abs) and quantified using an ELISA reader.

[2] = molecular target: T1, isolated ectodomain of SLAMF1 …
Experimental: as §1, §2

[3] = molecular target: T2, isolated ectodomain of SLAMF8 containing a 6-histidine tag (seSLAMF8) (UniProt Q9P0V8 23-233, limits assumed)
T2 construct: extracellular domain; not shown: 6-histidine tag
T2 sequence (Q9P0V8 23-233 limits assumed): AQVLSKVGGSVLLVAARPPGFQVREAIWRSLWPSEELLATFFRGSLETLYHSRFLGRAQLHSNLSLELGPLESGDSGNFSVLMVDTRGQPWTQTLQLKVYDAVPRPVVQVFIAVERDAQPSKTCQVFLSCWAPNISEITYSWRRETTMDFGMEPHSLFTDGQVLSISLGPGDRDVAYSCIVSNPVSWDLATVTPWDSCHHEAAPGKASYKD
Experimental: as §1, §2

Binder	binding result [1]	binding result [2]	binding result [3]
isolated SLAMF6^var3 ectodomain (seSLAMF6^var3), human, C-terminal 6-histidine tag (receptor, Expressed in HEK293 cells and purified on a Ni column (Novoprotein/BonOpus); The N-terminus is heterogeneous; also called seSLAMF6-V3; soluble ectodomain of SLAMF6^var3) GNVVSVPHETKSPEIHVTNPKQGKRLNFTQSYSLQLSNLKMEDTGSYRAQISTKTSAKLSSYTLRILRQLRNIQVTNHSQLFQNMTCELHLTCSVEDADDNVSFRWEALGNTLSSQPNLTVSWDPRISSEQDYTCIAENAVSNLSFSVSAQKLCEDVKIQYTDTKMGSHHHHHH	binds		
isolated ectodomain of SLAMF6^var1 containing a 6-histidine tag (Prospec, seSLAMF6) (receptor, Bought reagent; Only the ectodomain stood in the assay; also called isolated SLAMF6^var1 ectodomain; not shown: 6-histidine tag) QSSLTPLMVNGILGESVTLPLEFPAGEKVNFITWLFNETSLAFIVPHETKSPEIHVTNPKQGKRLNFTQSYSLQLSNLKMEDTGSYRAQISTKTSAKLSSYTLRILRQLRNIQVTNHSQLFQNMTCELHLTCSVEDADDNVSFRWEALGNTLSSQPNLTVSWDPRISSEQDYTCIAENAVSNLSFSVSAQKLCEDVKIQYTDTKM	binds		
B1		no binding	no binding
isolated ectodomain of SLAMF7 containing a 6-histidine tag (seSLAMF7) (receptor, UniProt Q9NQ25 23-226, looked up, extracellular domain; not shown: 6-histidine tag) SGPVKELVGSVGGAVTFPLKSKVKQVDSIVWTFNTTPLVTIQPEGGTIIVTQNRNRERVDFPDGGYSLKLSKLKKNDSGIYYVGIYSSSLQQPSTQEYVLHVYEHLSKPKVTMGLQSNKNGTCVTNLTCCMEHGEEDVIYTWKALGQAANESHNGSILPISWRWGESDMTFICVARNPVSRNFSSPILARKLCEGAADDPDSSM	no binding		
